Data on four molecules can be found in patent US11459389 (dated 2022).

Broadly, the Kd is the concentration at which binding is half-saturated.

What all share (experiment): FACS
For orientation: In flow cytometry, cells or beads pass a laser one at a time.

For one assay, the target named is T1, human Clec7A (human, UniProt Q9BXN2).
T1 chain: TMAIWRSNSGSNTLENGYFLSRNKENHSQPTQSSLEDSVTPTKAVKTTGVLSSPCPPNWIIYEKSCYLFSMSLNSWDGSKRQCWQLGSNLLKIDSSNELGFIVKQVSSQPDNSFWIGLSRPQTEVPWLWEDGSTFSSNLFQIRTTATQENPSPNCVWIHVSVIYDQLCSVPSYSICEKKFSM

For a further assay, the target named is T2, human Clec10A (human, UniProt Q8IUN9).
T2 chain: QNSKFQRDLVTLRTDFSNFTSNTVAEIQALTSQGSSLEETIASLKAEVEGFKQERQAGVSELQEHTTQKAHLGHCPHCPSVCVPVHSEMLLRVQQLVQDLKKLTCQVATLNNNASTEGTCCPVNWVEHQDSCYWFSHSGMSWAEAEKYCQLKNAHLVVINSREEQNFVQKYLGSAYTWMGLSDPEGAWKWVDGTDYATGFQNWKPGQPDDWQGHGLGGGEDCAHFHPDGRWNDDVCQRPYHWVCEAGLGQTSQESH

Another assay has as its target T3, human KLRG1 (human, UniProt Q96E93).
T3 chain: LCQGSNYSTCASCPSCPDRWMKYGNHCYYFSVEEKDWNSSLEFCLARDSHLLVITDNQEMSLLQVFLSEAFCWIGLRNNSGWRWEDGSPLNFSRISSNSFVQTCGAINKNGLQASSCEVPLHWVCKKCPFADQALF

The next assay deals with T4, human Clec4E (human, UniProt Q9ULY5).
T4 chain: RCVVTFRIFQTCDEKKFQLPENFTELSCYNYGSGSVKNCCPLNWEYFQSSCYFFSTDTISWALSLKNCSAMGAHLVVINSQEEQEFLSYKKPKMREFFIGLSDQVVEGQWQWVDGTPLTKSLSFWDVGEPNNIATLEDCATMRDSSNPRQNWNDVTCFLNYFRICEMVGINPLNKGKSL

The target of the next assay is T5, human Clec12B (human, UniProt Q2HXU8).
T5 chain: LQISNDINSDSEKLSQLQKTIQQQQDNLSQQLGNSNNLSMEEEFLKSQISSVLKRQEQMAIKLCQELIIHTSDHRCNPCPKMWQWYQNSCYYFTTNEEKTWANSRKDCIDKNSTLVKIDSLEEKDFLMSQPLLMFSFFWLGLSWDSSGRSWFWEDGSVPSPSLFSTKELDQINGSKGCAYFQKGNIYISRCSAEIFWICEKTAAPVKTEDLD

The target in a further assay is T6, human CD209 (human, UniProt Q9NNX6).
T6 chain: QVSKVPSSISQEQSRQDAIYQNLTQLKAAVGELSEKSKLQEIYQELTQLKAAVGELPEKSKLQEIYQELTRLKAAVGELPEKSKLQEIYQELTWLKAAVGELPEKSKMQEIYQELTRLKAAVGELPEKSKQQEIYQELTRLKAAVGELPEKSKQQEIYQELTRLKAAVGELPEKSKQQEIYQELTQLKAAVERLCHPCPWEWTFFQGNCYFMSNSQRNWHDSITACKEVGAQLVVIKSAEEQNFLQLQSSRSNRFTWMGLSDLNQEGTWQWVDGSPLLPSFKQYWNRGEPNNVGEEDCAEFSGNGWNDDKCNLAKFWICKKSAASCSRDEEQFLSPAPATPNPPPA

Another assay concerns the target T7, human Clec5A (human, UniProt Q9NY25).
T7 chain: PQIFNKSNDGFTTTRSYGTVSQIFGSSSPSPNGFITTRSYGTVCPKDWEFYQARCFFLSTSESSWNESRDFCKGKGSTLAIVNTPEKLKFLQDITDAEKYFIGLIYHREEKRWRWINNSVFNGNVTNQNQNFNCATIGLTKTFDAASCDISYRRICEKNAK

In another assay the target is human Clec9A (human, UniProt Q6UXN8).
Sequence of human Clec9A (Q6UXN8 57-241): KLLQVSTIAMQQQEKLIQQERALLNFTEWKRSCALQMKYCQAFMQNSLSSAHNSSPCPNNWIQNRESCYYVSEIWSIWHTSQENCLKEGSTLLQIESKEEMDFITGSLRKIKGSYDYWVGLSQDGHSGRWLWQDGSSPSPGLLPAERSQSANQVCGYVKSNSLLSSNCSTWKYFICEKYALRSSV
In the next assay the target is T8, human CD94 (human, UniProt Q13241).
T8 chain: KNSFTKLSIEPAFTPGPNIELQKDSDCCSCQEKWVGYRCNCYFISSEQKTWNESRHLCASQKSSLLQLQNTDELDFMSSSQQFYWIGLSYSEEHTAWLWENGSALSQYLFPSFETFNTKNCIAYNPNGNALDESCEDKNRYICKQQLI

The target of another assay is T9, human KLRF2 (human, UniProt D3W0D1).
T9 chain: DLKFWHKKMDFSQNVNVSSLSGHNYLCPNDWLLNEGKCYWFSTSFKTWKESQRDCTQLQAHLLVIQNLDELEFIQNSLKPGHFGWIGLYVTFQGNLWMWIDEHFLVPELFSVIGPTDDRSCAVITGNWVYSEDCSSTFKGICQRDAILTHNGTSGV

The next assay addresses T10, human KLRF1 (human, UniProt Q9NZS2).
T10 chain: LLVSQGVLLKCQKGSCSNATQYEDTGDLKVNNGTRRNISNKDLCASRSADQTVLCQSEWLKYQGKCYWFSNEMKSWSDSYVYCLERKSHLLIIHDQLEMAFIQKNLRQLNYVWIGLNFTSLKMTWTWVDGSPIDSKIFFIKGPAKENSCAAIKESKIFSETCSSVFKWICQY

In a further assay the target is human CD161 (human, UniProt Q12918).

B1: KW1.3.12 (antibody)
chain 1: EVQLVESGGGLVQPGGSLRLSCAASGFTFSSYAMSWVRQAPGKGLEWVSTISGSGGSTYYADSVKGRFTISRDNSRNTLYLQMNSLRAEDTAVYYCARGGLIPSGFDYWGQGTLVTVSS
chain 2: DIQMTQSPSSLSASVGDRVTITCRASQSISSYLNWYQQKPGKAPKLLIYAASSLLSGVPSRFSGSGSGTDFTLTISSLQPEDFATYYCQQTYSAPLTFGQGTKVEIK
Take B1: the binding result with human Clec7A, with human Clec10A, with human KLRG1, in the assay with human Clec4E, in the assay with human Clec12B and in the assay with human CD209 was “no binding” throughout. Moreover, the binding result with human Clec5A, with human Clec9A, with human CD94, with human KLRF2 and in the assay with human KLRF1 was “no binding” throughout.

B2: KW1.2.1 (antibody)
chain 1: EVQLVESGGGLVQPGGSLRLSCAASGSTFSSYAMSWVRQAPGKGLEWVSTISGSGGSTYYADSVKGRFTISRDNSRNTLYLQMNSLRAEDTAVYYCARGGLIPSGFDYWGQGTLVTVSS
chain 2: DIQMTQSPSSLSASVGDRVTITCRASQSISSYLNWYQQKPGKAPKLLIYAASSLLSGVPSRFSGGGSGTDFTLTISSLQPEDFATYYCQQTYSTPLTFGQGTKVEIK
In the assay with human CD161, B2 had an equilibrium dissociation constant (Kd) of 0.233 nM.

B3: KW7.3.7 (antibody)
chain 1: EVQLVESGGGLVQPGGSLRLSCAASGFTFSSYAMSWVRQAPGKGLEWVSATSGSGGSTYYADSAKGRFTISRDNSKNTLYLQMNSLRAEDTAVYYCARGGYLPDAFDYWGRGTLVTVSS
chain 2: DIQMTQSPSSLSASVGDRVTITCWASQSISSYLNWYQQEPGKAPKLLIYAASSLQSGVPSRFSGSGSGTDFTLTISSLQPEDFATYYCQQTYSTPLTFGQGTKVEIK
As for B3, the binding result in the assay with human Clec7A, with human Clec10A, with human KLRG1, with human Clec4E, with human Clec12B and in the assay with human CD209 was “no binding” throughout. Further, the binding result with human Clec5A, in the assay with human Clec9A, with human CD94, in the assay with human KLRF2 and in the assay with human KLRF1 was “no binding” each time.

B4: KM12.4.7 (antibody)
chain 1: EVQLVESGGGLVQPGGSLRLPCAASGFTFSSYAMSWIRQAPGKGLEWVSAISGSGGSIYYADSVKGRFTISRDNSKNTLYLQMDSLRAEDTAVYYCARGYSDSYFYGPYYTFDYWGQGTLVTVSS
chain 2: not shown
On to B4, for which the binding result with human Clec7A, with human Clec10A, in the assay with human KLRG1, with human Clec4E, with human Clec12B and in the assay with human CD209 was “no binding” each time. Moreover, the binding result in the assay with human Clec5A, in the assay with human Clec9A, with human CD94, with human KLRF2 and with human KLRF1 was “no binding” throughout.
